These results are taken from article PMC8251712.

For series [1], the target named is T1, Myb10-D (Pcold-Myb10-D fusion) (Triticum aestivum, UniProt C0SPG5 1-265). The experiment in a line: competition.
Series [2] has as its target T1, Myb10-D (Pcold-Myb10-D fusion). The experiment in a line: EMSA. Background: A gel shift assay detects complexes by their altered migration in electrophoresis.
Series [3] has the same target. The experiment in a line: competition. The source holds these as a separate data set.
The target is the same in series [4]. As to the kind of experiment: competition. This is another data set of the same source.
Series [5] shares this target. As to the kind of experiment: EMSA. The source holds these as a separate data set.

B1: NCED freeprobe2988mu (mutant competitor) (dsDNA)
DNA 1: ACGTAATCTTTGAACTTTTCGGGGGGAAACATTTCCACC
DNA 2: GGTGGAAATGTTTCCCCCCGAAAAGTTCAAAGATTACGT
For B1, in series [1], the binding result is recorded as “no binding”.

B2: NCED probe2988 (SMRE) (dsDNA)
DNA 1: ACGTAATCTTTGAACTTTTCACCAAATAAACATTTCCACC
DNA 2: GGTGGAAATGTTTATTTGGTGAAAAGTTCAAAGATTACGT
Turning to B2, in series [2], the binding result was “binds”.

B3: NCED freeprobe2988 (WT competitor) (dsDNA)
DNA 1: ACGTAATCTTTGAACTTTTCACCAAATAAACATTTCCACC
DNA 2: GGTGGAAATGTTTATTTGGTGAAAAGTTCAAAGATTACGT
For the molecule B3, the binding result in series [3] is recorded as “binds”.

B4: ABA3 269200 WT (dsDNA)
DNA 1: ACATCGTCGTTCATCACCAGCTAGCGAAGCAAACAAGGAG
DNA 2: CTCCTTGTTTGCTTCGCTAGCTGGTGATGAACGACGATGT
Consider B4, for which the binding result in series [2] is given as “binds”.

B5: ABA3 269200 mu (dsDNA)
DNA 1: ACATCGTCGTTCATCACGGGGGGGCGAAGCAAACAAGGAG
DNA 2: CTCCTTGTTTGCTTCGCCCCCCCGTGATGAACGACGATGT
With B5, in series [4], the binding result was “no binding”.

B6: AAO 343200 WT (dsDNA)
DNA 1: CACGAAGATTTCCCAGCTATCATCAATAAGACCAGGTCGC
DNA 2: GCGACCTGGTCTTATTGATGATAGCTGGGAAATCTTCGTG
Take B6: in series [5], the binding result is on record as “no binding”.

B7: SDR 396500 WT (dsDNA)
DNA 1: CCGGATTGAGGGCCGGAGTAGCTGCAGGTGTGATCTCCCG
DNA 2: CGGGAGATCACACCTGCAGCTACTCCGGCCCTCAATCCGG
Consider B7, for which, in series [5], the binding result is reported as “no binding”.
